Data set [1] concerns the molecule itself. In words: cryo-EM structure; digitonin-induced intermediate state; Talos Arctica; 2D class averages and a map at 16 Å.
Data set [2] deals with the molecule itself. Kind of data set: cryo-EM structure; sample #1: pore complexes in DDM, all SEC fractions pooled; Talos Arctica 200 kV; maps at 6.8 Å and 7.5 Å.
Data set [3] concerns the molecule itself. Kind of data set: negative staining EM; ClyA incubated with 1% digitonin overnight, fractions from SEC (Superose 6 10/300 GL); intermediate state.
Data set [4] deals with the molecule itself. In words: cryo-EM structure; sample #3: ClyA 2.5 mg/mL with 0.5% DDM and 5 mM DTT at 4°C overnight, then SEC in 25 mM Tris-HCl pH 8.0, 150 mM NaCl, 0.05% digitonin, 2 mM DTT; Titan Krios 300 kV; C12, C13, C14 classes.

The results in this text go back to article PMC6497250, “High-resolution cryo-EM structures of the E. coli hemolysin ClyA oligomers” (PLoS ONE, 2019).

“And” between values parts separate entries of the source, which are not always exact repeats. Equal values may be shown once.

B1: E. coli cytolysin A (ClyA) with complete N-terminal purification tag (natural protein)
chain: MTEIVADKTVEVVKNAIETADGALDLYNKYLDQVIPWQTFDETIKELSRFKQEYSQAASVLVGDIKTLLMDSQDKYFEATQTVYEWCGVATQLLAAYILLFDEYNEKKASAQKDILIKVLDDGITKLNEAQKSLLVSSQSFNNASGKLLALDSQLTNDFSEKSSYFQSQVDKIRKEAYAGAAAGVVAGPFGLIISYSIAAGVVEGKLIPELKNKLKSVQNFFTTLSNTVKQANKDIDAAKLKLTTEIVAIGEIKTETETTRFYVDYDDLMLSLLKEAAKKMINTCNEYQKRHGKKTLFEVPEV
notes: E. coli cytolysin A (ClyA), cDNA amplified from BL21 (DE3), mutations and deletions removed by two-step PCR; final plasmid has A248V compared to UniProtKB P77335; The soluble protein is a monomer; the oligomers (12, 13, 14, about 3) form with detergent; also called hemolysin (HlyE); silent hemolysin A (SheA); source: E. coli BL21 (DE3), purified (Ni2+-NTA, Mono Q anion exchange); not shown: His6, …
As to B1, the stoichiometry N (commonly a count of units in the complex or per binding partner) is 3 and 4 in data set [1]; 12 and 13 in data set [2]; about 3 in data set [3]; 14 in data set [4].
